Assay [1] has as its target Synthetic biotinylated bovine SR-AI (synthetic, truncated SR-AI comprising the ligand binding pocket) (bovine) (UniProt P21758). Put plainly: competition of selective phage pool binding to immobilized biotinylated SR-AI by suc-HSA.
Assay [2] addresses T1, immobilized, biotinylated, synthetic, truncated SR-AI (Bos taurus, UniProt P21758).
T1 sequence (P21758 1-453): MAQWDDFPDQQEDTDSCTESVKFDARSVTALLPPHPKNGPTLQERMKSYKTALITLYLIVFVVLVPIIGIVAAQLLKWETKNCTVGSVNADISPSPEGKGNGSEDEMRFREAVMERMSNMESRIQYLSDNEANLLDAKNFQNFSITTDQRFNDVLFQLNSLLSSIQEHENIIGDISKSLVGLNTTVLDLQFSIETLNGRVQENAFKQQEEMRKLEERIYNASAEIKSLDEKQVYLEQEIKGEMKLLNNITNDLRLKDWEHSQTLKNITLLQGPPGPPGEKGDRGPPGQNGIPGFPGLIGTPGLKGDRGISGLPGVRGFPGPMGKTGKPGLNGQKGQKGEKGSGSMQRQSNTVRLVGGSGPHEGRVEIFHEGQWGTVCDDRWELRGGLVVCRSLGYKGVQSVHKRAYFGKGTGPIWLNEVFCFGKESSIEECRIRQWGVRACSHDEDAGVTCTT
Put plainly: Competition of selected phage pool binding to immobilized synthetic SR-AI. On the set-up: species or system bovine. From the text:
(§1) All peptides were synthesized on an automated peptide synthesizer (9050 Millipore, MA) using standard Fmoc solid-phase peptide synthesis. Crude peptides were purified on a preparative C8 RP-HPLC column (Altech, Deerfield, IL) using a JASCO PU-980 (Tokyo, Japan). Purified peptides were further characterized by LC-MS in Division of Analytical Biosciences, Leiden University. The purity of the peptide, as checked by MALDI-TOF mass spectrometry and RP-HPLC, was at least 70%. Lyophilized peptides were stored at -20°C under nitrogen until further use. Synthetic biotinylated bovine SR-AI was synthesized, purified and characterised as described by Suzuki et al. (Suzuki et al., 1999).
In analogy to the phage selection procedure, 10 µg/ml of streptavidin in coating buffer was incubated overnight at 4°C in a high-binding 96-well plate at 100 µl/well. Wells were washed 3x with assay buffer and incubated for 1 h at 37°C with blocking buffer. Next, wells were incubated for 2h at 37°C with 125 nM biotininylated SR-AI binding peptide (100 µl/well), washed 3x with binding buffer, after which the SR-AI ligands or synthetic SR-AI binding peptides (7, 9, 11, 13, 15 a. a.) were added and the solution (100 µl) was left to incubate for 2h at RT with the enriched phage pool (round 7) at 10^8 cfu. Wells were washed 10x with binding buffer, binding phage were eluted by incubation for 5 min at RT with 100 µl elution buffer, and neutralized with 50 µl neutralization buffer (1M Tris-HCI, pH 8.5). Residual phage binding was calculated from the output ratio.

Assay [3] concerns the target T2, synthetic biotinylated bovine SR-AI (truncated, comprising the ligand binding pocket) (Bos taurus, UniProt P21758).
T2 sequence (P21758 272-343): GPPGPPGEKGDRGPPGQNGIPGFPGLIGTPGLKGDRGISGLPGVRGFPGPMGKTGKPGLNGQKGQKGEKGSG
Put plainly: Competition of enriched phage pool binding to immobilized biotinylated synthetic SR-AI. Conditions: displacement of enriched phage pool (round 7, 10^8 cfu) from streptavidin-immobilized biotinylated SR-AI peptide; 0-300 µm peptide; 2h at RT; calculated from displacement curves.
Text: as §1
10 µg/ml of streptavidin in coating buffer (50 mM NaHC03, pH 9.6) was incubated overnight at 4°C in a high binding 96 well plate (Costar, Coming, UK) at 100 µl/well. Subsequently, wells were washed with assay buffer (20 mM HEPES, 150 mM NaCl, 1mM CaCl2, pH 7.4) and incubated for 1 hour at 37°C with blocking buffer (3% BSA in assay buffer). […]
In analogy to the phage selection procedure, 10 µg/ml of streptavidin in coating buffer was incubated overnight at 4°C in a high-binding 96-well plate at 100 µl/well. […] Residual phage binding was calculated from the output ratio.

The target in assay [4] is Synthetic biotinylated bovine SR-AI (synthetic, truncated SR-AI comprising the ligand binding pocket) (bovine) (UniProt P21758). The assay can be described thus: competition of enriched phage pool binding to immobilized biotinylated SR-AI peptide by synthetic peptide.
Assay [5] shares this target. Described as above. This is another data set of the same source.
Assay [6] has the same target. The assay can be described thus: competition of enriched phage pool binding to immobilized biotinylated SR-AI; IC50 against that of poly I.
[7] abbreviates: synthetic peptides (0-300 µM) competing with binding of enriched phage pool (round 7) to biotinylated SR-AI peptide, calculated from displacement curves, three independent experiments.

Here are results for nine molecules from patent publication EP1602931A1, “SR-A antagonists” (Universiteit Leiden, priority 2004, dated 2005).

Like-named read-outs stand apart in the source and are kept apart here. No end group written: not given here.

In general, IC50 refers to the concentration that inhibits the measured activity by half. “Succinylated human serum albumin (from UniProt P02768 25-609) (ligand)”: in assay [1], the IC50 was determined as 66 mg/L.

For the molecule LERFLRCWSDAPA [LERFLRCWSDAPA], the concentration for half-maximal inhibition (IC50) in assay [2] (setting [7]) was 72.3 µM. Take LSLERFLRCWSDAPA [PP1]: the IC50 in assay [3] was 29 µM. For the molecule RFLRCWSDAPA [RFLRCWSDAPA], in assay [2] (setting [7]), the IC50 is 80.9 µM. As to LSLERFLRCWSDAPA [PP1, LSLERFLRCWSDAPA], the results for the IC50 in assay [2] and in assay [2] (setting [7]) were 28.3 µM and 29.1 µM, respectively. CWSDAPA [PP1-7 (CWSDAPA)] displayed a half-inhibitory concentration (IC50) in assay [4] of 217 µM. As to LSLERFLRCWSDAPA [PP1 (…), synthetic full-length peptide], the half-inhibitory concentration (IC50) in assay [5] was found to be 50 mg/L. Further, in assay [6], the fold less potent than poly I stood at 5 fold. In assay [4], LERFLRCWSDAPA [PP1-13 (…)] showed an IC50 of 72.3 µM.

In assay [4], RFLRCWSDAPA [PP1-11 (…)] came in with an IC50 of 80.9 µM.
